Biological target: autologous blood coagulum (ABC) prepared from rat full blood
Assay: rhBMP-6 mixed with rat full blood, coagulated for 60 min, serum removed; method of quantification not stated

Substance: recombinant human BMP6 (rhBMP6) (from UniProt P22004 375-513) (ligand)
- percent bound: > 95%

Reference: patent US20210213165A1
